Source: US20170369569A1 (KAO, published 2017)
Ends that are not written are not given here.

How the values were obtained:
active GIP, GIP(1-42) = molecular target: T1, active GIP, GIP(1-42) (human); assay: sandwich ELISA, anti-total GIP capture antibody, biotinylated anti-active GIP antibody (1 µg/mL) as detection, GIP 8.2 to 2000 pg/mL
T1 construct: also called human active GIP
T1 peptide: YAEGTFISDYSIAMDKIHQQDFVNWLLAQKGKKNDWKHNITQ
Experimental: (§1) The reactivity of the monoclonal antibody obtained in Example 1 with active GIP was confirmed by ELISA. The amino group of the anti-active GIP monoclonal antibody was biotinylated using a NH₂ group biotinylation kit (manufactured by Dojindo Laboratories). ELISA was conducted using 1 μg/mL prepared biotinylated anti-active GIP monoclonal antibody instead of a detection antibody ‘GIP detection antibody’ (biotinylated anti-total GIP monoclonal antibody) included in Human (total) GIP ELISA kit (manufactured by Merck Millipore). Six 4-fold serial dilutions (8.2 to 2000 pg/mL) were prepared with a 2000 pg/mL solution of GIP(1-42) or GIP(3-42) as the highest concentration. The capture antibody used was an anti-total GIP monoclonal antibody (included in the Human GIP (total) ELISA kit manufactured by Merck Millipore). The detection antibody used was the biotinylated anti-active GIP monoclonal antibody. A sandwich ELISA system containing a peroxidase-streptavidin conjugate was used in detection. GIP concentrations were plotted on the X axis against absorbance of 450 nm to 590 nm on the Y axis to prepare a calibration curve (FIG. 1).

[1] = molecular target: T2, PEGylated N-terminal 15 amino acids of active GIP (GIP(1-15)), antigen (1) for measurement (human, also: PEGylated, site not given here); assay: ELISA on immobilized antigen (1 µg/mL), hybridoma culture supernatant, HRP-labeled anti-mouse Ig secondary antibody
T2 construct: also called PEGylated GIP(1-15)
T2 peptide: YAEGTFISDYSIAMD
Experimental: (§2) The antigens (1) and (2) for measurement were each diluted to 1 μg/mL with PBS(−) and immobilized onto plates.

nonactive GIP, GIP(3-42) = molecular target: T3, nonactive GIP, GIP(3-42) (human); assay: sandwich ELISA, anti-total GIP capture antibody, biotinylated anti-active GIP antibody (1 µg/mL) as detection
T3 peptide: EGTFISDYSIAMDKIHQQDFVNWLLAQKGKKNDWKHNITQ
Experimental: as §1

[2] = molecular target: T4, GIP(1-6)+GIP nonspecific 4aa (random 4aa) synthetic peptide; assay: direct ELISA on immobilized peptide, biotinylated antibody, peroxidase-streptavidin
T4 construct: also called GIP(1-6)+random 4aa
T4 peptide: H-YAEGTFVNLV-OH
Experimental: (§3) The synthesized 6 peptides were each diluted to 1 μg/mL with PBS(−) and immobilized onto 96-well plates. ELISA was conducted using the biotinylated anti-active GIP monoclonal antibody and a peroxidase-streptavidin conjugate for detection.

[3] = molecular target: T5, GIP(1-7) synthetic peptide; assay: as above
T5 peptide: H-YAEGTFI-OH
Experimental: as §3

[4] = molecular target: T6, GIP(1-6) synthetic peptide; assay: as above
T6 peptide: H-YAEGTF-OH
Experimental: as §3

[5] = molecular target: T7, PEGylated N-terminal 13 amino acids of nonactive GIP (GIP(3-15)), antigen (2) for measurement (human, also: PEGylated, site not given here); assay: ELISA on immobilized antigen, hybridoma culture supernatant, HRP-labeled anti-mouse Ig secondary antibody
T7 construct: also called PEGylated GIP(3-15)
T7 peptide: EGTFISDYSIAMD
Experimental: as §2

[6] = molecular target: T8, GIP (1-9) synthetic peptide; assay: direct ELISA on immobilized peptide (1 µg/mL), biotinylated antibody, peroxidase-streptavidin
T8 peptide: H-YAEGTFISD-OH
Experimental: as §3

[7] = molecular target: T9, GIP (1-10) synthetic peptide; assay: as above
T9 construct: Free NH2 and COOH termini as printed
T9 peptide: H-YAEGTFISDY-OH
Experimental: as §3

[8] = molecular target: T10, GIP(1-8) synthetic peptide; assay: as above
T10 peptide: H-YAEGTFIS-OH
Experimental: as §3

B1: anti-active GIP monoclonal antibody produced from hybridoma 9B9H5-B9 line (antibody, V domains shown)
VH: QVQLQQPGAELVKPGASVKLSCKASGYTFTSFWMHWVIQRPGQGLEWIGEMNPSDGRTHFNEKFKTKATLTIDTSSNTAYMELNSLTSEDSAVYYCARRMEDWGQGTLVTVSA
VL: DIKMTQSPSSMYASLGERVTITCKASQDINSYLGWFQQKPGKSPKTLIYGANRLVDGVPSRFSGSGSGQDYSLTISSLEYDDMGIYYCLQYDEFPLTFGAGTKLELKR
notes: Mouse (BALB/c) hybridoma monoclonal antibody, purified on protein A. It was amplified with a mouse IgG H chain-specific primer; also called biotinylated anti-active GIP monoclonal antibody; anti-active GIP antibody of the present invention
binding result (active GIP, GIP(1-42)): binds
binding result [1]: binds
binding result (nonactive GIP, GIP(3-42)): no binding (tested: 8.2 to 2000 pg/mL)
binding result [2]: no binding (tested: peptide coated at 1 µg/mL)
binding result [3]: no binding (tested: peptide coated at 1 µg/mL)
binding result [4]: no binding (tested: peptide coated at 1 µg/mL)
binding result [5]: no binding (tested: antigen coated at 1 µg/mL)
binding result [6]: binds
binding result [7]: binds
binding result [8]: binds
